{"source": "patent US20250376536A1", "about": "(Bristol-Myers Squibb, published 2025)", "binders": {"B1": {"name": "CD40.9H3×FAP.LP62 bispecific antibody (bispecific antibody, human IgG1, kappa, L234A L235A)", "heavy 1": "EVQLVESGGGLVQPGGSLRLSCAASGFTFIGYSMNWVRQAPGKGLEWVSYISSYESTIYYADSVKGRFTISRDNAKNSLYLQMNSLRAEDTAVYYCARSRITLVRGVPRYFDLWGRGTLVTVSSASTKGPSVFPLAPSSKSTSGGTAALGCLVKDYFPEPVTVSWNSGALTSGVHTFPAVLQSSGLYSLSSVVTVPSSSLGTQTYICNVNHKPSNTKVDKKVEPKSCDKTHTCPPCPAPEAAGGPSVFLFPPKPKDTLMISRTPEVTCVVVSVSHEDPEVKFNWYVDGVEVHNAKTKPREEQYNSTYRVVSVLTVLHQDWLNGKEYKCKVSNKALPAPIEKTISKAKGQPREPQVYVLPPSREEMTKNQVSLLCLVKGFYPSDIAVEWESNGQPENNYLTWPPVLDSDGSFFLYSKLTVDKSRWQQGNVFSCSVMHEALHNHYTQKSLSLSPG", "heavy 2": "EVQLVESGGGLVQPGGSLRLSCAASGFTFIGYSMNWVRQAPGKGLEWVSYISSYESTIYYADSVKGRFTISRDNAKNSLYLQMNSLRAEDTAVYYCARSRITLVRGVPRYFDLWGRGTLVTVSSASTKGPSVFPLAPSSKSTSGGTAALGCLVKDYFPEPVTVSWNSGALTSGVHTFPAVLQSSGLYSLSSVVTVPSSSLGTQTYICNVNHKPSNTKVDKKVEPKSCDKTHTCPPCPAPEAAGGPSVFLFPPKPKDTLMISRTPEVTCVVVSVSHEDPEVKFNWYVDGVEVHNAKTKPREEQYNSTYRVVSVLTVLHQDWLNGKEYKCKVSNKALPAPIEKTISKAKGQPREPQVYVYPPSREEMTKNQVSLTCLVKGFYPSDIAVEWESNGQPENNYKTTPPVLDSDGSFALVSKLTVDKSRWQQGNVFSCSVMHEALHNHYTQKSLSLSPGGGSGGGGSGGGGSGGGGSEVQLLESGGGLVQPGGSLRLSCAASGFTFSSRGMSWVRQAPGKCLEWVSFISSSGTYVYYADSVKGRFTISRDNSKNTLYLQMNSLRAEDTAVYYCARDLPRTGVYFGMDVWGQGTTVTVSSGGGGSGGGGSGGGGSGGGGSDIQMTQSPSSLSASVGDRVTITCRASQSIFNYLNWYQQKPGKAPKLLIYGASTLQSGVPSRFSGSGSGTDFTLTISSLQPEDFATYYCQESYSTPYTFGCGTKVEIK", "light": "not shown", "notes": "2+1 format: two anti-CD40 9H3 Fabs on an IgG1 Fc with L234A, L235A, D265S and heterodimerization mutations; Ratio 1:1:2"}}, "key": {"[1]": {"target": "T1, FcγRIIA (CD32a) (UniProt P12318 34-217, limits assumed)", "T1 sequence (looked up)": "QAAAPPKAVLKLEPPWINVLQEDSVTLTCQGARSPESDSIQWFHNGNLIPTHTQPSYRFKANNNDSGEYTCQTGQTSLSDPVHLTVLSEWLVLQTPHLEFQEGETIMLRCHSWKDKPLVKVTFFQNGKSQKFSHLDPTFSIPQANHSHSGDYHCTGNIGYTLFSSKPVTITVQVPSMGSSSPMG", "test": "SPR, Biacore S200, antibody captured on Protein A chip, FcγR as analyte", "protocol": "(§1) Binding of CD40.9H3×FAP.LP62 and the analog of RO7300490 to various Fc gamma receptors (FcγR1 (CD64), FcγRIIIA (CD16a), FcγRIIIB (CD16b), FcγRIIA (CD32a), FcγRIIB (CD32b)) was determined in an analyte/capture assay in vitro. Briefly, an SPR assay was performed using a Biacore S200 with a Biacore Series S Protein A chip (Cytiva). All antibodies were prepared at 4.0 μg/ml in 1×HBS-EP+ running buffer (Cytiva) and captured onto flow cells 2, 3, and 4 through a 60 second contact time at 10 μl/min. An analyte series of the FcγRs (BMS In-House Produced) were prepared at 10,000 nM in 1×HBS-EP+ with eight, three-fold dilutions. Kinetic measurements were conducted with a 120 second association followed by a 120 second dissociation at 30 μl/min. Surface regeneration was preformed by 60 second contact time of 50 mM Glycine pH 1.5 solution (Cytiva) at 30 μl/min. Data was processed in Biacore Insight Evaluation Version 5 (Cytiva). Sensorgrams were double referenced and globally fit to a 1:1 Langmuir model were applicable. Where 1:1 model was not sufficient to describe the interaction (fast-on and fast-off rates), steady state equilibrium fitting was used to determine the equilibrium constant."}, "[2]": {"target": "FcγRIIIA (CD16a) (UniProt P08637 17-208, limits assumed)", "sequence (P08637 17-208 limits assumed)": "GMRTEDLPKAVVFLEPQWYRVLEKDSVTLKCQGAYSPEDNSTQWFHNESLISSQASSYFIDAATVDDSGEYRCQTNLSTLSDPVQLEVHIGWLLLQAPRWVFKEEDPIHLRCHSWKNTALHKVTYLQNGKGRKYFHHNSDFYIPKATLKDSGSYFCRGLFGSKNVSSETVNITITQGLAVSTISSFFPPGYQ", "test": "SPR, Biacore S200, antibody captured on Protein A chip, FcγR as analyte", "protocol": "as §1"}, "[3]": {"target": "T2, FcγRIIB (CD32b) (UniProt P31994 43-217, limits assumed)", "T2 sequence (looked up)": "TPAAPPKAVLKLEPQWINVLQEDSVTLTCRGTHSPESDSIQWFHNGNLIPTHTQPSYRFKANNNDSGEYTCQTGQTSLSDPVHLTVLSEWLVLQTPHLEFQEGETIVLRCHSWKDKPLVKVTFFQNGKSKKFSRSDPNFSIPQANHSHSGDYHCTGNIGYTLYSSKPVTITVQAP", "test": "SPR, Biacore S200, antibody captured on Protein A chip, FcγR as analyte", "protocol": "as §1"}, "[4]": {"target": "T3, FcγRI (CD64) (UniProt P12314 16-288, limits assumed)", "T3 construct": "also called FcγR1 (CD64); FcγR1", "T3 sequence (P12314 16-288 limits assumed)": "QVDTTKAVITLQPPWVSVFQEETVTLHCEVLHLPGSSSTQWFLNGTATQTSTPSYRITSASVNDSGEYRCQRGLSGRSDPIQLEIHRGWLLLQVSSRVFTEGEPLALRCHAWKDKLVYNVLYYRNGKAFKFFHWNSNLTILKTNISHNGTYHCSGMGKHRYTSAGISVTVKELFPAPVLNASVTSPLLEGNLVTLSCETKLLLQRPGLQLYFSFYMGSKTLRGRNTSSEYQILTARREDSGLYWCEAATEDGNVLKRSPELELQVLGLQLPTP", "test": "SPR, Biacore S200, antibody captured on Protein A chip, FcγR as analyte", "protocol": "as §1"}, "[5]": {"target": "FcγRIIIB (CD16b) (UniProt O75015 17-200, limits assumed)", "sequence (O75015 17-200 limits assumed)": "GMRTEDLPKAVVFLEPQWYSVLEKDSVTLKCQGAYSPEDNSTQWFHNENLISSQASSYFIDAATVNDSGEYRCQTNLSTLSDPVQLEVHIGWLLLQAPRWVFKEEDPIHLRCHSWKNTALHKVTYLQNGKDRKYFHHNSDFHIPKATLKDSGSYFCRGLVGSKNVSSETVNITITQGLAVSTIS", "test": "SPR, Biacore S200, antibody captured on Protein A chip, FcγR as analyte", "protocol": "as §1"}, "[6]": {"target": "T4, human CD40 protein (human, UniProt P25942 21-193)", "T4 construct": "Protein used in SPR", "T4 sequence (P25942 21-193 limits assumed)": "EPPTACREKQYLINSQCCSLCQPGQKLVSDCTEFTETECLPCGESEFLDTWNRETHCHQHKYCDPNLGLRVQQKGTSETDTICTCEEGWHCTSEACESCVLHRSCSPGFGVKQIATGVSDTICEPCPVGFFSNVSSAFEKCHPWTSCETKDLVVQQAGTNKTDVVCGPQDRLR", "test": "SPR", "protocol": "(§2) CD40.9H3×FAP.LP62 and an analog of RO7300490 (see SEQ ID NOs: 39-42) binding to human and cynomolgus (cyno) CD40 and FAP was evaluated by surface plasmon resonance (SPR) using human and cyno CD40 and FAP proteins. […] The rates of association and dissociation of CD40.9H3×FAP.LP62 and the analog of RO7300490 to human CD40 and FAP are summarized in Table 2."}, "[7]": {"target": "cynomolgus (cyno) CD40 protein (cynomolgus monkey, UniProt G7PG38 21-193)", "test": "SPR", "protocol": "as §2"}, "[8]": {"target": "T5, human FAP protein (human, UniProt Q12884 26-760)", "T5 sequence": "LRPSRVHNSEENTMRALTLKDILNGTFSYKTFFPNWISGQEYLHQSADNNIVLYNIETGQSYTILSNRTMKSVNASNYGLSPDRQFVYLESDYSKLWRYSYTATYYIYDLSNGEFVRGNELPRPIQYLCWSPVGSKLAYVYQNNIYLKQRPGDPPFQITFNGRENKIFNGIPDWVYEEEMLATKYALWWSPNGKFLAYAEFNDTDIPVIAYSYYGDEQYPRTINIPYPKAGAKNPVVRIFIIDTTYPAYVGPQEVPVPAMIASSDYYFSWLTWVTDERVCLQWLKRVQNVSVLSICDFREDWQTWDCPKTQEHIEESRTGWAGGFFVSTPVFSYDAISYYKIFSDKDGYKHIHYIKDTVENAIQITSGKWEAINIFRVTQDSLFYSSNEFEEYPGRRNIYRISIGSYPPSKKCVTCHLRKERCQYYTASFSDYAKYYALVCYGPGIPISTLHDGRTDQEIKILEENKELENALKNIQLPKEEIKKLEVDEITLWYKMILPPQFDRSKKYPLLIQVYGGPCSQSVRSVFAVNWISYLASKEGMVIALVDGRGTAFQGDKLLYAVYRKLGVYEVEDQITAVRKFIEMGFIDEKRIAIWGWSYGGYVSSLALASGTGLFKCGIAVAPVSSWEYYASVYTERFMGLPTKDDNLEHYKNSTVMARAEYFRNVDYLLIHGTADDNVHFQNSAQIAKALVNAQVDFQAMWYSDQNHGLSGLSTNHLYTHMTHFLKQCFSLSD", "test": "SPR", "protocol": "as §2"}, "[9]": {"target": "T6, human CD40 on cells (human, UniProt P25942 21-277)", "T6 construct": "Endogenous CD40 on human primary cells and Raji cells; also called CD40-positive macrophage; CD40-positive B cell", "T6 sequence (P25942 21-277)": "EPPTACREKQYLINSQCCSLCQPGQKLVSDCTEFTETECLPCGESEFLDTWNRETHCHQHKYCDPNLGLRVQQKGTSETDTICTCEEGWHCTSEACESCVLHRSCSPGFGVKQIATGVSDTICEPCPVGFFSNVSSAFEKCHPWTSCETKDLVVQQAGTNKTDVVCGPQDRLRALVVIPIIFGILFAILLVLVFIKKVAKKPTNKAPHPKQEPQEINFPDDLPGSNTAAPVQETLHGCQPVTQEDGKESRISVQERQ", "test": "binding to human CD40-positive macrophages"}}}
{"binder": "B1", "values": [{"measurement": "binding result", "setting": "[1]", "value": "no binding"}, {"measurement": "binding result", "setting": "[2]", "value": "no binding"}, {"measurement": "binding result", "setting": "[3]", "value": "no binding"}, {"measurement": "binding result", "setting": "[4]", "value": "no binding"}, {"measurement": "binding result", "setting": "[5]", "value": "no binding"}, {"measurement": "Kd", "setting": "[6]", "value": 92, "unit": "nM"}, {"measurement": "koff", "setting": "[6]", "value": 0.0052, "unit": "s⁻¹"}, {"measurement": "kon", "setting": "[6]", "value": 57000, "unit": "M⁻¹ s⁻¹"}, {"measurement": "Kd", "setting": "[7]", "value": 97, "unit": "nM"}, {"measurement": "koff", "setting": "[7]", "value": 0.0052, "unit": "s⁻¹"}, {"measurement": "kon", "setting": "[7]", "value": 53000, "unit": "M⁻¹ s⁻¹"}, {"measurement": "Kd", "setting": "[8]", "value": 1.96, "unit": "nM"}, {"measurement": "koff", "setting": "[8]", "value": 0.00147, "unit": "s⁻¹"}, {"measurement": "kon", "setting": "[8]", "value": 750000, "unit": "M⁻¹ s⁻¹"}, {"measurement": "EC50", "setting": "[9]", "value": 11.9, "unit": "nM"}]}
